# Columns and labels:
# [1] = target: ubiquitin (from a pRSETA plasmid, for isothermal titration calorimetry) (UniProt P0CG48 1-76); assay: ITC
# [2] = target: human ubiquitin (from pGEX-6P1) (human, UniProt P0CG48 1-76); assay: crystal structure
Binder,Kd [1] [µM],binding result [2]
"catalytic domain of Sst2 (residues 245–435), Sst2^cat (domain or fragment) AGTFKIHAYTEGGKPLRTIYLPKLLKKVFLDVVKPNTKKNLETCGILCGKLRQNAFFITHLVIPLQEATSDTCGTTDEASLFEFQDKHNLLTLGWIHTHPTQTCFMSSVDLHTHCSYQLMLPEAIAIVMAPSKNTSGIFRLLDPEGLQTIVKCRKPGLFHPHEGKVYTMVAQPGHVREINSKLQVVDLRVK",10.2 ± 0.6,–
Sst2^catD354A (Asp354Ala mutant of the catalytic domain of Sst2) (domain or fragment) AGTFKIHAYTEGGKPLRTIYLPKLLKKVFLDVVKPNTKKNLETCGILCGKLRQNAFFITHLVIPLQEATSDTCGTTDEASLFEFQDKHNLLTLGWIHTHPTQTCFMSSVALHTHCSYQLMLPEAIAIVMAPSKNTSGIFRLLDPEGLQTIVKCRKPGLFHPHEGKVYTMVAQPGHVREINSKLQVVDLRVK,–,binds
Sst2^catE286A (Glu286Ala mutant of the catalytic domain of Sst2) (domain or fragment) AGTFKIHAYTEGGKPLRTIYLPKLLKKVFLDVVKPNTKKNLATCGILCGKLRQNAFFITHLVIPLQEATSDTCGTTDEASLFEFQDKHNLLTLGWIHTHPTQTCFMSSVDLHTHCSYQLMLPEAIAIVMAPSKNTSGIFRLLDPEGLQTIVKCRKPGLFHPHEGKVYTMVAQPGHVREINSKLQVVDLRVK,3 ± 0.56,–
